Data published in US20150191542A1.
Positions count from the first letter of the chain named.

T1: MICA*001 expressed on transfected cells (human)
T1 sequence: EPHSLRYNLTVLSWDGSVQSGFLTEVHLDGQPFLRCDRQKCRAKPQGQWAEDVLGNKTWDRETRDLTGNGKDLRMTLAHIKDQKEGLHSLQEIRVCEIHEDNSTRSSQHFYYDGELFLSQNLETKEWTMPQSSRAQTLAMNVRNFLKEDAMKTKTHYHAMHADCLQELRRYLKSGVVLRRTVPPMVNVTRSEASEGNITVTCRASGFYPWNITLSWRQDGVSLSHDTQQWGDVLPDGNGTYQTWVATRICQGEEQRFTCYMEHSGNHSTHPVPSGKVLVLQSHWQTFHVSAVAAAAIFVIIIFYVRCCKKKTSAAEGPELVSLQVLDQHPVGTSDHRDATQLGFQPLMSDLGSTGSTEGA

B1: CHG1-M-MIA-6E4 (antibody, from a related filing, V domains shown)
VH: EVQLVESGGALVKPGGSLKLSCAASGFTFSYYAMSWVRQTPEKRLEWVATISRGGNYIYYTDSVKGRFTISRDNAKNTLYLQMTSLRSEDTAMFYCASISDYDGAWLAYWGQGTTLTVSS
VL: DVLMTQTPLSLPVSLGDQASISCRSSQSIIHTNGNTYLEWYLQKPGQSPKLLIYKISNRFSGVPDRFSGSGSGTDFTLKISRVEAEDLGVYYCFQGSHVPWTFGGGTKLEIKR
B2: CHG1-M-MIA-19E9 (antibody, V domains shown)
VH: DVQLQESGPGLVKPSQSLSLTCTVTGYSITSDYAWNWIRQFPGNKLEWMGFVSYSGTTKYNPSLKSRISITRDTSENQFFLQLNSVTSEDTATYYCARGYGFDYWGQGTTLTVSS
VL: EIVLTQSPTTMAASPGEKITITCSATSSISSIYFHWYQQRPGFSPKLLIYRTSNLASGVPARFSGSGSGTSYSLTIGTMEAEDVATYYCQQGTTIPFTFGSGTKLEIK
B3: CHG1-M-MIA-18E8 (antibody, from a related filing, V domains shown)
VH: DVQLQESGPDLVNPSQSLSLICTVTGYSITSDYSWHWIRQFPGNKLEWMGNIHYSGRINYNPSLRSRISITRDTSKNQFFLQLISVTTEDTATYYCATRRTFGNFEDYWGQGTTLTVSS
VL: QIVLSQSPATLSVSPGEKVTMTCRSSSSVNYMHWYQQKPGSSPKPWIYATSTLASGVPARFSGSGSGTSYSLTISRVEAEDAATYYCQQWSSNPLTFGAGTKLELK
B4: CHG1-M-MIA-12A10 (antibody, from a related filing, V domains shown)
VH: QVQLQQSGADLVRPGASVRLSCRASGYSFTNYWMNWVKQRPGQGLEWIGMIHPSDSETRLNQKFKDKATLTVDKSSNTAYMQLSSPTSEDSAIYYCARDDFFTMDYWGQGTSVTVSS
VL: DILLTQSPAILSVSPGERVSFSCRASQNIVTSIHWYQQSTNGSPRLLIKYASESISGIPSRFSGSGSGTDFTLTINSVESEDVADYYCQQSNIWPLTFGAGTKLELK
B5: CHG1-M-MIA-10F3 (antibody, from a related filing, V domains shown)
VH: QVQLQQSAAELARPGASVKMSCKASGYTFTSYTMHWVKQRPGQGLEWIGYINPSSGYTEYNQKFKDKTTLTVDKSSTTSYMQLSSLTSDNSAVYYCARGGDWDVDWFVYWGQGTLVTVSA
VL: QIVLTQSPAIMSASPGEKVTITCSASSSISYMHWFQQKPGTSPKLWIYSTSKLASGVPARFSGSGSGTSHSLTISRMEAEDAATYYCQHRSTYPFTFGSGTKLEIK
B6: CHG1-M-MIA-14B4 (antibody, from a related filing, V domains shown)
VH: QVQLQQPGAELVRPGASVKLSCKASGYSFTSYWMNWMKQRPGQGLEWIGMIHPSDSETRLNQKFKDKATLTVDKSSSTAYMQLNSPTSEDSAVYYCAREMGPYTLDYWGQGTSVTVSS
VL: B4 VL with E17A, V30D, S39R, T74S, V83I, I93Y

Each binder was assayed against T1, MICA*001 expressed on transfected cells (human) (assay: flow cytometry, MFI against antibody concentration on C1R-MICA*01 cells).

| EC50 (read off the curve) [µg/mL] | Binder |
| --- | --- |
| 0.6 | B1 |
| 1 | B2 |

What follows are binders tested against MICA*007 expressed on C1R transfectant cells (human) (UniProt Q29983) (assay: flow cytometry, MFI against antibody concentration on C1R-MICA*07 cells).

| EC50 (read off the curve) [µg/mL] | Binder |
| --- | --- |
| 1 | B1 |
| 0.3 | B3 |
| 1 | B4 |

The binders below were run against MICA*008 expressed on C1R transfectant cells (human) (UniProt Q29983) (assay: flow cytometry, MFI against antibody concentration on C1R-MICA*08 cells).

| EC50 (read off the curve) [µg/mL] | Binder |
| --- | --- |
| 0.3 | B5 |
| 0.3 | B3 |
| 0.3 | B4 |
| 0.3 | B6 |

What follows are binders tested against MICA*004 expressed on C1R transfectant cells (human) (UniProt Q29983) (assay: flow cytometry, MFI against antibody concentration on C1R-MICA*04 cells).
Chain of MICA*004 expressed on C1R transfectant cells (human) (Q29983 other isoform, or with tags, fused parts or gaps limits assumed): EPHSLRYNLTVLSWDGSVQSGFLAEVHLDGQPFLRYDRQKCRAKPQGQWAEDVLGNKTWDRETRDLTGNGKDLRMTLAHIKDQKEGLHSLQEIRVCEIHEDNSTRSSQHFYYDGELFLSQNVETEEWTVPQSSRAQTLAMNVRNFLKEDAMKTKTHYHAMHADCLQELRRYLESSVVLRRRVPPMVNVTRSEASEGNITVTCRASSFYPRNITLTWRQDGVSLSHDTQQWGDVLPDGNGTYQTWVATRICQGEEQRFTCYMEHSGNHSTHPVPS

| EC50 (read off the curve) [µg/mL] | Binder |
| --- | --- |
| 0.2 | B5 |
| 0.2 | B3 |
| 0.3 | B4 |
| 0.2 | B6 |
